Measurements reported in US20090004680A1.

Biological target: Mouse synaptosomes (BoNT/A acceptor on a mouse synaptosome preparation)

Question: Which maximum percent inhibition does the source give for “Inactivated BoNT/A (toxoid) (from UniProt P0DPI0 2-1296)” here?
Answer: 98%
